Where two headings read alike, the source gives them in different places. Square brackets hold non-standard residues; d marks the D form. Ends that are not written are not given here. Nle = CCCC[C@H](N)C(=O)O
B1: metallopeptide 3-3 (peptide)
peptide: YV[Nle]GH[dF]RWDCRF-NH2
modifications: not fully specified (bridges); printed as Tyr-Val-Nle-Gly-His-D-Phe-Arg-Trp-Asp-Cys-Arg-Phe-NH2; also: oxorhenium(V) N3S1 chelate (backbone N of W8, D9, C10 and C10 S)
B2: metallopeptide 3-9 (peptide)
peptide: YV[Nle]GCH[dF]RWDRF-NH2
modifications: also: oxorhenium(V) N3S1 chelate: C5 SG + backbone N of X3, G4, C5, bridge at 5 via Re(V)=O, other end not in the chain
B3: metallopeptide 3-4 (peptide)
peptide: YV[Nle]GH[dF]RWCDRF-NH2
modifications: not fully specified (bridges); printed as Tyr-Val-Nle-Gly-His-D-Phe-Arg-Trp-Cys-Asp-Arg-Phe-NH2; also: oxorhenium(V) N3S1 chelate (backbone N of R7, W8, C9 and C9 S)
B4: metallopeptide 3-5 (peptide)
peptide: YV[Nle]GH[dF]RCWDRF-NH2
modifications: not fully specified (bridges); printed as Tyr-Val-Nle-Gly-His-D-Phe-Arg-Cys-Trp-Asp-Arg-Phe-NH2; also: bridge at 8 via Re(V)=O, other end not in the chain
B5: metallopeptide 3-2 (peptide)
peptide: YV[Nle]GH[dF]RWDRCF-NH2
modifications: not fully specified (bridges); printed as Tyr-Val-Nle-Gly-His-D-Phe-Arg-Trp-Asp-Arg-Cys-Phe-NH2; also: oxorhenium(V) N3S1 chelate (backbone N of D9, R10, C11 and C11 S)
B6: metallopeptide 3-11 (peptide)
peptide: YVC[Nle]GH[dF]RWDRF-NH2
modifications: bridge (positions not given here); not fully specified (bridges); printed as Tyr-Val-Cys-Nle-Gly-His-D-Phe-Arg-Trp-Asp-Arg-Phe-NH2.; also: oxorhenium(V) N3S1 complex
B7: metallopeptide 3-6 (peptide)
peptide: YV[Nle]GH[dF]CRWDRF-NH2
modifications: not fully specified (bridges); printed as Tyr-Val-Nle-Gly-His-D-Phe-Cys-Arg-Trp-Asp-Arg-Phe-NH2; also: bridge at 7 via Re(V)=O, other end not in the chain
B8: metallopeptide 5-1 (peptide)
peptide: YV[Nle]GH[dF]RWDRC-NH2
modifications: also: oxorhenium(V) N3S1 chelate: C11 SG + backbone N of D9, R10, C11, bridge at 11 via Re(V)=O, other end not in the chain
B9: metallopeptide 5-7 (peptide)
peptide: YV[Nle]GC[dF]RWDRF-NH2
modifications: also: oxorhenium(V) N3S1 chelate: C5 SG + backbone N of X3, G4, C5, bridge at 5 via Re(V)=O, other end not in the chain
B10: metallopeptide 5-5 (peptide)
peptide: YV[Nle]GH[dF]CWDRF-NH2
modifications: also: oxorhenium(V) N3S1 chelate: C7 SG + backbone N of H5, F6, C7, bridge at 7 via Re(V)=O, other end not in the chain
B11: metallopeptide 5-3 (peptide)
peptide: YV[Nle]GH[dF]RWCRF-NH2
modifications: also: oxorhenium(V) N3S1 chelate: C9 SG + backbone N of R7, W8, C9, bridge at 9 via Re(V)=O, other end not in the chain
B12: metallopeptide 5-8 (peptide)
peptide: YV[Nle]CH[dF]RWDRF-NH2
modifications: also: oxorhenium(V) N3S1 chelate: C4 SG + backbone N of V2, X3, C4, bridge at 4 via Re(V)=O, other end not in the chain
B13: metallopeptide 5-6 (peptide)
peptide: YV[Nle]GHCRWDRF-NH2
modifications: also: oxorhenium(V) N3S1 chelate: C6 SG + backbone N of G4, H5, C6, bridge at 6 via Re(V)=O, other end not in the chain
B14: metallopeptide 5-2 (peptide)
peptide: YV[Nle]GH[dF]RWDCF-NH2
modifications: also: oxorhenium(V) N3S1 chelate: C10 SG + backbone N of W8, D9, C10, bridge at 10 via Re(V)=O, other end not in the chain
B15: metallopeptide 5-4 (peptide)
peptide: YV[Nle]GH[dF]RCDRF-NH2
modifications: also: oxorhenium(V) N3S1 chelate: C8 SG + backbone N of F6, R7, C8, bridge at 8 via Re(V)=O, other end not in the chain

Experiments:
[1] = biological target: T1, melanocortin-1 receptor (MC1-R) of B-16 mouse melanoma cells (mouse, UniProt Q01727 1-315); assay: 125I-NDP-α-MSH competition, B-16 membranes
T1 construct: whole, on cells; membranes prepared from the cells were used; also called Melanocortin Receptor 1
T1 sequence (Q01727 whole entry): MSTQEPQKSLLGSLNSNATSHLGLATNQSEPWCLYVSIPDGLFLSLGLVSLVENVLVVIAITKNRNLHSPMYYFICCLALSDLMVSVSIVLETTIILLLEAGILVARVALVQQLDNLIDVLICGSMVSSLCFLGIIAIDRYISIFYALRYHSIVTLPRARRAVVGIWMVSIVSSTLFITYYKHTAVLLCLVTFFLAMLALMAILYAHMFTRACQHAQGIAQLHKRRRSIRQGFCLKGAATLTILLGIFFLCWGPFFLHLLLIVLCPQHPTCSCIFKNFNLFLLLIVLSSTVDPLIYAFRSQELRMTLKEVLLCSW
Description: (§1) The competitive inhibition binding assay was conducted using membranes prepared from hMC3-R, hMC4-R, hMC5-R, and B-16 mouse melanoma cells (containing MC1-R) using 0.4 nM ¹²⁵I-NDP-alpha-MSH (New England Nuclear, Boston, Mass., USA) in 50 mM HEPES buffer containing 1 mM MgCl₂, 2 mM CaCl₂, and 5 mM KCl, at pH 7.2. […] Incubation was for 90 minutes at room temperature, after which the assay mixture was filtered and the membranes washed three times with ice cold buffer. The filter was dried and counted in a gamma counter for remaining radioactivity bound to the membranes. 100% specific binding was defined as the difference in radioactivity (cpm) bound to cell membranes in the absence and presence of 1 μM α-MSH. […] Each assay was conducted in triplicate and the actual mean valves are described.
(§2) The first unnumbered peptide in Table 3 is the parent polypeptide, which is a Nle³, D-Phe⁶ substituted γ-MSH analog specific for melanocortin receptors. The methods and assays set forth in Example 1 were followed.

[2] = biological target: T2, human melanocortin-3 receptor (hMC3-R) (human, UniProt P41968 1-323); assay: 125I-NDP-α-MSH competition, hMC3-R membranes
T2 construct: whole, on cells; membranes prepared from hMC3-R cells were used; also called Melanocortin Receptor 3
T2 sequence (P41968 whole entry): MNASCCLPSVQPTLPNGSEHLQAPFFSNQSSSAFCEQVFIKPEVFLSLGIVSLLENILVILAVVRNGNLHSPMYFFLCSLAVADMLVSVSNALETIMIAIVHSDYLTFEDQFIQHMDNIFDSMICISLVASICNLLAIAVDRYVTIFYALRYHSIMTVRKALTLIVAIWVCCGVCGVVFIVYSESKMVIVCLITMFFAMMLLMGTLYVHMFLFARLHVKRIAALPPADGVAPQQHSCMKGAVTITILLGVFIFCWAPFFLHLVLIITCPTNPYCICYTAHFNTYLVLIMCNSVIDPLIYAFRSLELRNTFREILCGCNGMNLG
Description: as §1, §2

[3] = biological target: T3, human melanocortin-4 receptor (hMC4-R) (human, UniProt P32245 1-332); assay: 125I-NDP-α-MSH competition, hMC4-R membranes
T3 construct: whole, on cells; membranes prepared from hMC4-R cells were used; also called Melanocortin Receptor 4
T3 sequence (P32245 whole entry): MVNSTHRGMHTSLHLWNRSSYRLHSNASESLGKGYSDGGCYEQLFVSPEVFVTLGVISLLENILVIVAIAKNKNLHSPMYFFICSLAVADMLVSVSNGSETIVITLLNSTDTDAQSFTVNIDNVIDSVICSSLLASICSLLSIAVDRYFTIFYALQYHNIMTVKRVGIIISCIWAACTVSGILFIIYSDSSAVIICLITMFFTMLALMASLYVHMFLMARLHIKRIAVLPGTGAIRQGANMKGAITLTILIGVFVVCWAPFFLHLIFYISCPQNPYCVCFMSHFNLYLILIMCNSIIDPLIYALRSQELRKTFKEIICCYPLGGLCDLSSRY
Description: as §1, §2

[4] = biological target: T4, human melanocortin-5 receptor (hMC5-R) (human, UniProt P33032 1-325); assay: 125I-NDP-α-MSH competition, hMC5-R membranes
T4 construct: whole, on cells; membranes prepared from hMC5-R cells were used; also called Melanocortin Receptor 5
T4 sequence (P33032 whole entry): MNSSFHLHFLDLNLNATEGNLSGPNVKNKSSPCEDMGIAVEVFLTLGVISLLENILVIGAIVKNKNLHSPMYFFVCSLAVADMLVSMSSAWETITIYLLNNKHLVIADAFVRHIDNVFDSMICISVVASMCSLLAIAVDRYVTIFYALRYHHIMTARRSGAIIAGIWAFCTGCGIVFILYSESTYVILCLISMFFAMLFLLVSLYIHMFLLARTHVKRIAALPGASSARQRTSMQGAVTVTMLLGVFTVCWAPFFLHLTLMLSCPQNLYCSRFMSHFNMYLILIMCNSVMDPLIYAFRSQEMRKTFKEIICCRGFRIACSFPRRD
Description: as §1, §2

[5] = biological target: T1, melanocortin-1 receptor (MC1-R) of B-16 …; assay: 125I-NDP-α-MSH competition, B-16 membranes; remark: listed apart in the source
Description: as §1

[6] = biological target: T2, human melanocortin-3 receptor (hMC3-R); assay: 125I-NDP-α-MSH competition, hMC3-R membranes; remark: listed apart in the source
Description: as §1

[7] = biological target: T3, human melanocortin-4 receptor (hMC4-R); assay: 125I-NDP-α-MSH competition, hMC4-R membranes; remark: listed apart in the source
Description: as §1

[8] = biological target: T4, human melanocortin-5 receptor (hMC5-R); assay: 125I-NDP-α-MSH competition, hMC5-R membranes; remark: listed apart in the source
Description: as §1

[9] = biological target: T1, melanocortin-1 receptor (MC1-R) of B-16 …; assay: 125I-NDP-α-MSH competition, B-16 membranes; remark: listed apart in the source
Description: as §1
(§3) The first unnumbered peptide in Table 5 is the parent polypeptide, which is a γ-MSH analog specific for melanocortin receptors. The methods and assays set forth in Example 1 were followed.

[10] = biological target: T2, human melanocortin-3 receptor (hMC3-R); assay: 125I-NDP-α-MSH competition, hMC3-R membranes; remark: listed apart in the source
Description: as §1, §3

[11] = biological target: T3, human melanocortin-4 receptor (hMC4-R); assay: 125I-NDP-α-MSH competition, hMC4-R membranes; remark: listed apart in the source
Description: as §1, §3

[12] = biological target: T4, human melanocortin-5 receptor (hMC5-R); assay: 125I-NDP-α-MSH competition, hMC5-R membranes; remark: listed apart in the source
Description: as §1, §3

Row | % Inhibition at 1 µM [1] [%] | % Inhibition at 1 µM [2] [%] | % Inhibition at 1 µM [3] [%] | % Inhibition at 1 µM [4] [%] | % Inhibition at 1 µM [9] [%] | % Inhibition at 1 µM [10] [%] | % Inhibition at 1 µM [11] [%] | % Inhibition at 1 µM [12] [%] | also measured | Binder
1 | 99 | 95 | 99 | 99 | – | – | – | – | – | B1
2 | 77 | 69 | 55 | 67 | – | – | – | – | – | B2
3 | 98 | 88 | 94 | 100 | – | – | – | – | – | B3
4 | 84 | 78 | 80 | 86 | – | – | – | – | – | YV[Nle]CGH[dF]RWDRF-NH2 (also: Re(V)=O N3S1 chelate via V2 N, Nle3 N, Cys4 N and S (ReOCl3(PPh3)2)) [metallopeptide 3-10]
5 | 83 | 45 | 33 | 81 | – | – | – | – | – | B4
6 | 99 | 91 | 89 | 100 | – | – | – | – | – | B5
7 | 95 | 85 | 82 | 92 | – | – | – | – | – | B6
8 | – | – | – | – | – | – | – | – | % Inhibition at 1 µM [5]: 96%; % Inhibition at 1 µM [6]: 15%; % Inhibition at 1 µM [7]: 26%; % Inhibition at 1 µM [8]: 19% | Ac-SYCS[Nle]EHFRWGKPV-NH2 (also: oxorhenium(V) N3S1 chelate at Cys3) [metallopeptide 1-12]
9 | 95 | 96 | 98 | 102 | – | – | – | – | – | YVXGHFRWDRFC (Nle 3 (X in letters); D-Phe 6; C-terminal amide; Re complexed at Cys 12) [metallopeptide 3-1]
10 | 52 | 20 | 31 | 31 | – | – | – | – | – | B7
11 | – | – | – | – | 101 | 92 | 95 | 98 | – | B8
12 | – | – | – | – | 89 | 70 | 69 | 88 | – | B9
13 | – | – | – | – | 67 | 15 | 26 | 28 | – | B10
14 | – | – | – | – | 100 | 93 | 97 | 100 | – | B11
15 | – | – | – | – | 95 | 89 | 86 | 98 | – | B12
16 | – | – | – | – | 74 | 26 | 4 | 21 | – | B13
17 | – | – | – | – | 95 | 39 | 58 | 61 | – | B14
18 | – | – | – | – | 86 | 11 | 18 | 58 | – | B15

— patent US20050282739A1 (PALATIN TECHNOLOGIES, published 2005)
